We go through twelve molecules from patent US20230220042A1 (SHANGHAI JIAO TONG UNIVERSITY SCHOOL OF MEDICINE, published 2023).

Assay [1] has as its target Biotin-FcγRIIB (human FcγRIIB, Sino Biological) (human) (UniProt P31994). The experiment in a line: NGS after FACS sort of 3T3-displayed LibraryMix for biotin-FcγRIIB binding.
In assay [2] the target is Biotin-FcγRIIB (human) (UniProt P31994). The experiment in a line: sorting of displayed Fc library on FcγRIIB, NGS.
Assay [3] has the same target. Description: NGS of 3T3 display library C2 flow-sorted for FcγRIIB binding.
Assay [4] shares this target. The experiment in a line: NGS of 3T3 display library Cmix flow-sorted for FcγRIIB binding.
The target is the same in assay [5]. The experiment in a line: NGS of 3T3 display library IgG2_C01 flow-sorted for FcγRIIB binding.
Assay [6] has the same target. The experiment in a line: NGS of 3T3 display library IgG2_C02 flow-sorted for FcγRIIB binding.
The target is the same in assay [7]. Description: magnetic sorting on biotin-FcγRIIB with unlabelled activating FcγRs, NGS; Library2.
For assay [8] the target is unchanged. Description: magnetic sorting on biotin-FcγRIIB with unlabelled activating FcγRs, NGS; Library4.
Assay [9] has the same target. The experiment in a line: magnetic sorting on biotin-FcγRIIB with unlabelled activating FcγRs, NGS; LibraryMix #3.
Assay [10] has the same target. Description: magnetic sorting on biotin-FcγRIIB with unlabelled activating FcγRs, NGS; LibraryMix #4.
Assay [11] deals with T1, Biotin-FcγRIIB (human, UniProt P31994 43-217, limits assumed, biotin-labelled).
T1 construct: Bought, biotin-labelled; used at 1 µg/ml for staining and sorting; also called human FcγRIIB; CD32b
T1 sequence (looked up): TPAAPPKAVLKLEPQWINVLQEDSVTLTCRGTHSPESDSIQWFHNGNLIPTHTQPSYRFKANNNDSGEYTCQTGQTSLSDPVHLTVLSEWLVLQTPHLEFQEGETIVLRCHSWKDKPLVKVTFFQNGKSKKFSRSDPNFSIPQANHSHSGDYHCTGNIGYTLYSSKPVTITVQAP
Description: FACS sorting of displayed Fc library on biotin-FcγRIIB, NGS.

Assay [12] has as its target T1, Biotin-FcγRIIB. Description: FACS sorting of displayed Fc library on biotin-FcγRIIB, NGS; reference S298R.
The target in assay [13] is T1, Biotin-FcγRIIB. Description: FACS sorting of displayed Fc library on biotin-FcγRIIB, NGS; reference P271G.
In assay [14] the target is T1, Biotin-FcγRIIB. The experiment in a line: FACS sorting of displayed Fc library on biotin-FcγRIIB, NGS; reference P271C.
In assay [15] the target is T1, Biotin-FcγRIIB. The experiment in a line: FACS sorting of displayed Fc library on biotin-FcγRIIB, NGS; reference S267E.
Assay [16] concerns the target T2, Biotin-FcγRIIB (human, UniProt P31994 43-217, limits assumed, biotin label).
T2 construct: Soluble labelled protein used to stain and sort the display cells; also called human FcγRIIB; CD32b
T2 sequence (looked up): T1 sequence (looked up)
The experiment in a line: NGS of 3T3 display library IgG2_C02 flow-sorted for FcγRIIB binding. The text has this:
Then flow cytometry is used for sorting the cells with high affinity to FcγRIIB for two to three rounds. […] IgG2_C01 is a combined mutation (Type I) library having at most 1 mutation in each of the four regions of P233-V240, V266-P271, S298-T299, and G327-I332; IgG2_C02 is a cell library made by combining the combined mutation (Type II) libraries of four regions of P233-V240, V266-P271, S298-T299 and G327-I332 together and transferring it into 3T3 cells.

Residue numbers refer to the chain shown, from its start. Names and notes keep the numbering of the source.

As to “human IgG2 anti-mouse CD40 surface displayed antibody, P271G/G236V”, in assay [1], the Enrichment factor (percentage after sorting/percentage before sorting) turned out to be 10.3 and the Increased factor (enrichment factor/wild-type enrichment factor) is 13.7.

On to “human IgG2 anti-mouse CD40 surface displayed antibody, Fc mutant S298A”, for which, in the assay with Biotin-FcγRIIB (human) [2], the Enrichment factor (percentage after sorting/percentage before sorting) amounted to 0.92.

For “human IgG2 anti-mouse CD40 surface displayed antibody, wild-type Fc”, in the assay with Biotin-FcγRIIB (human) [3], the percentage after 1st sorting was found to be 2.51%, the percentage after 2nd sorting was 5.25%, the percentage after 3rd sorting was 12.6% and the percentage before sorting is 8.97%. In addition, in the assay with Biotin-FcγRIIB (human) [4], the percentage after 1st sorting was 1.32%, the percentage after 2nd sorting turned out to be 1.03%, the percentage after 3rd sorting was 0.4% and the percentage before sorting turned out to be 1.07%. In the assay with Biotin-FcγRIIB (human) [5], this molecule came in with a percentage after 1st sorting of 61.6%, a percentage after 2nd sorting of 54.2% and a percentage before sorting of 63.8%. Moreover, in the assay with Biotin-FcγRIIB (human) [6], the percentage after 1st sorting amounted to 58.4%, the percentage after 2nd sorting turned out to be 47.8% and the percentage before sorting came out at 56.6%.

The molecule “human IgG2 anti-mouse CD40 surface displayed antibody, Fc mutant G236D” came in with an Enrichment factor (percentage after sorting/percentage before sorting) with Biotin-FcγRIIB (human) [2] of 0.84.

Take “human IgG2 anti-mouse CD40 surface displayed antibody (wild-type IgG2 Fc)”: the Enrichment factor (percentage after sorting/percentage before sorting) was 0.83 in the assay with Biotin-FcγRIIB (human) [7], 0.88 with Biotin-FcγRIIB (human) [8], 1.13 in the assay with Biotin-FcγRIIB (human) [9] and 0.94 with Biotin-FcγRIIB (human) [10]. The Percentage after sorting/unbinding percentage in the assay with Biotin-FcγRIIB (human) [7] was determined as 0.58; with Biotin-FcγRIIB (human) [8], 0.85; with Biotin-FcγRIIB (human) [9] it was 1.06; with Biotin-FcγRIIB (human) [10], 0.95. For the same molecule, the Percentage before sorting/unbinding percentage is 0.7 with Biotin-FcγRIIB (human) [7], 0.97 with Biotin-FcγRIIB (human) [8], 0.94 in the assay with Biotin-FcγRIIB (human) [9] and 1.01 with Biotin-FcγRIIB (human) [10].

B1: human IgG2 anti-mouse CD40 surface displayed antibody, Fc mutant P271A/S298R (antibody, name in EU numbering)
light chain (with the P2A rest): DTVLTQSPALAVSPGERVTISCRASDSVSTLMHWYQQKPGQQPKLLIYLASHLESGVPARFSGSGSGTDFTLTIDPVEADDTATYYCQQSWNDPWTFGGGTKLELKRTVAAPSVFIFPPSDEQLKSGTASVVCLLNNFYPREAKVQWKVDNALQSGNSQESVTEQDSKDSTYSLSSTLTLSKADYEKHKVYACEVTHQGLSSPVTKSFNRGECGSGATNFSLLKQAGDVEENPG
heavy chain: EVQLVESDGGLVQPGRSLKLPCAASGFTFSDYYMAWVRQAPTKGLEWVASISYDGSSTYYRDSVKGRFTISRDNAKSTLYLQMDSLRSEDTATYYCGRHSSYFDYWGQGVMVTVSSASTKGPSVFPLAPCSRSTSESTAALGCLVKDYFPEPVTVSWNSGALTSGVHTFPAVLQSSGLYSLSSVVTVPSSNFGTQTYTCNVDHKPSNTKVDKTVERKCCVECPPCPAPPVAGPSVFLFPPKPKDTLMISRTPEVTCVVVDVSHEDAEVQFNWYVDGVEVHNAKTKPREEQFNRTFRVVSVLTVVHQDWLNGKEYKCKVSNKGLPAPIEKTISKTKGQPREPQVYTLPPSREEMTKNQVSLTCLVKGFYPSDIAVEWESNGQPENNYKTTPPMLDSDGSFFLYSKLTVDKSRWQQGNVFSCSVMHEALHNHYTQKSLSLSPGKLEPPPSTVSNMATVAVLVVLGAAIVTGAVVAFVMKMRRRNTGGKGGDYALAPGSQTSDLSLPDCKVMVHDPHSLA
notes: as m1; positions are Eu numbers; copies: 2 + 2
As to B1, in the assay with Biotin-FcγRIIB [11], the “Enrichment factor (after/before sorting)” value was 2.45 and the “Increased factor a (enrichment factor/wild-type enrichment factor)” value turned out to be 3.27. The “Increased factor 2 c Site 2 (combined/point mutation)” value with Biotin-FcγRIIB [12] was found to be 4.2.

B2: human IgG2 anti-mouse CD40 surface displayed antibody, Fc mutant P271G/S298R (antibody, name in EU numbering)
light chain (with the P2A rest): B1 light chain (with the P2A rest)
heavy chain: B1 heavy chain with A266G
notes: as for B1
As to B2, in the assay with Biotin-FcγRIIB [11], the “Enrichment factor (after/before sorting)” value was 16 and the “Increased factor a (enrichment factor/wild-type enrichment factor)” value is 21.4. For the same molecule, the “Increased factor 2 c Site 1 (combined/point mutation)” value with Biotin-FcγRIIB [13] is 4.5. In the assay with Biotin-FcγRIIB [12], the “Increased factor 2 c Site 2 (combined/point mutation)” value was 27.4.

B3: human IgG2 anti-mouse CD40 surface displayed antibody, Fc mutant S267M/P271C (antibody, name in EU numbering)
light chain (with the P2A rest): B1 light chain (with the P2A rest)
heavy chain: B1 heavy chain with S262M, A266C, R293S
notes: as for B1
Consider B3, for which, in the assay with Biotin-FcγRIIB [11], the “Enrichment factor (after/before sorting)” value worked out at 32.1 and the “Increased factor a (enrichment factor/wild-type enrichment factor)” value worked out at 56. Further, in the assay with Biotin-FcγRIIB [14], the “Increased factor 2 c Site 2 (combined/point mutation)” value was found to be 1.9.

B4: human IgG2 anti-mouse CD40 surface displayed antibody, Fc mutant S267E/S298R (antibody, name in EU numbering)
light chain (with the P2A rest): B1 light chain (with the P2A rest)
heavy chain: B1 heavy chain with S262E, A266P
notes: as for B1
With B4, in the assay with Biotin-FcγRIIB [11], the “Enrichment factor (after/before sorting)” value is 32.8 and the “Increased factor a (enrichment factor/wild-type enrichment factor)” value stood at 43.8. For the same molecule, the “Increased factor 2 c Site 1 (combined/point mutation)” value with Biotin-FcγRIIB [15] was 1.5. Moreover, the “Increased factor 2 c Site 2 (combined/point mutation)” value with Biotin-FcγRIIB [12] was 56.2.

B5: human IgG2 anti-mouse CD40 surface displayed antibody, S267E/H268S/E269D (antibody, name in EU numbering)
light chain (with the P2A rest): B1 light chain (with the P2A rest)
heavy chain: B1 heavy chain with S262E, H263S, E264D, A266P, R293S
notes: As m1 with the Fc mutations
For the molecule B5, in the assay with Biotin-FcγRIIB [16], the “enrichment factor, percentage after 1st sorting/percentage before sorting” value was 80.5 ratio; the “enrichment factor, percentage after 2nd sorting/percentage after 1st sorting” value was 83.7 ratio; the “enrichment factor, percentage after 2nd sorting/percentage before sorting” value was determined as 6730 ratio; the “increased factor, mutant enrichment factor/wild-type enrichment factor” value worked out at 7970 ratio.

B6: human IgG2 anti-mouse CD40 surface displayed antibody, Fc mutant V266A/P271C (antibody, name in EU numbering)
light chain (with the P2A rest): B1 light chain (with the P2A rest)
heavy chain: B1 heavy chain with V261A, A266C, R293S
notes: as for B1
As for B6, in the assay with Biotin-FcγRIIB [11], the “Enrichment factor (after/before sorting)” value came to 42.2 and the “Increased factor a (enrichment factor/wild-type enrichment factor)” value came out at 73.5. The “Increased factor 2 c Site 2 (combined/point mutation)” value with Biotin-FcγRIIB [14] was found to be 2.5.

B7: human IgG2 anti-mouse CD40 surface displayed antibody, Fc mutant S267E/P271C (antibody, name in EU numbering)
light chain (with the P2A rest): B1 light chain (with the P2A rest)
heavy chain: B1 heavy chain with S262E, A266C, R293S
notes: as for B1
As for B7, in the assay with Biotin-FcγRIIB [11], the “Enrichment factor (after/before sorting)” value worked out at 1000 and the “Increased factor a (enrichment factor/wild-type enrichment factor)” value amounted to 1740. Besides, in the assay with Biotin-FcγRIIB [14], the “Increased factor 2 c Site 2 (combined/point mutation)” value worked out at 58.4. Moreover, the “Increased factor 2 c Site 1 (combined/point mutation)” value in the assay with Biotin-FcγRIIB [15] is 61.2.
